Experimental data taken from patent US20230002478A1.

Experiments:
[1] = target: SARS-CoV-2 S1-Fc (South Africa 178-08) (SARS-CoV-2), P0DTC2; assay: SPR; settings: remark: other sources report otherwise
[2] = target: SARS-CoV-2 S Trimer (SARS-CoV-2), P0DTC2; assay: SPR; settings: remark: other sources report otherwise

B1: 6-63 (Fc fusion)
chain: EVQLVESGGGLVQPGGSLRLSCAASGQTFNMGWFRQAPGKEREFVAAIGSGGSTSYADSVKGRFTISADNSKNTAYLQMNSLKPEDTAVYYCWRLGNDYFDYWGQGTLVTVSS
B1 gave a Kd [1] of 26.8 nM and a Kd [2] of 0.68 nM.
